Assays:
[1] = molecular target: MtMce4A_(39–140) (Mycobacterium tuberculosis H37Rv); assay: crystal structure; native protein, 7.5 mg ml^−1; 100 mM sodium HEPES, 100 mM LiCl2, 20% PEG 400 pH 7.5, 22°C; space group P6_(5), 2.9 Å
[2] = molecular target: MtMce4A_(39–140) (Mycobacterium tuberculosis H37Rv); assay: SEC-MALS; in crystallization buffer (0.1 M MES, 0.7 M ammonium sulfate pH 6.0) after slow heating from 20 to 50°C (0.8°C per minute); supernatant on Superdex 200 10/300

MtMce4A_(39–140) (domain or fragment)
stoichiometry N [1]: 2 | stoichiometry N [2]: 2

Source: paper PMC8420772
